Ends that are not written are not given here.
What was measured:
[1] = ζ potential of carbon nanostructures (Zetasizer); assay type: physicochemical
Protocol: The resulting PEI-SWCNT suspension was characterized by measuring the absorbance spectra on a UV-vis absorbance spectrophotometer (UV-2600, Shimadzu). The quality of the SWCNT suspension was determined by analyzing absorbance peaks at 632 nm. This measurement was performed with triplicates. The concentration of the PEI-SWCNT was determined spectrophotometrically using the absorption value at 632 nm and utilizing the equation (absorbance at 632 nm/extinction coefficient of 0.036)=mg L^−1. The final concentration obtained after purification ranged from 18 to 30 mg/L. The nanoparticle ζ potential was measured using a Zetasizer (Nano ZS, Malvern Instruments) in samples suspended in 10 mM TES buffer pH 7.0, with 0.1 mM NaCl. The hydrodynamic size was measured using Zetasizer (Nano ZS, Malvern Instruments) in samples suspended in a 10 mM TES buffer at pH 7.
Characterization of Nanomaterials. All nanomaterials were characterized by absorbance UV-vis spectroscopy (UV-2600 Shimadzu), hydrodynamic size (Nano S), and ζ potential (Nano ZS). The nanomaterial ζ potential and hydrodynamic diameter were measured in a 10 mM TES buffer (pH 7.0). The ζ potential measurements were performed in 0.1 mM NaCl to improve conductivity and analyzed by the Hückel approximation model.^111 CD fluorescence emission was collected using a fluorescence spectrometer (Horiba PTI QM-400). The stepwise synthesis of TP-β-CDs was analyzed using FTIR (Thermo Nicolet 6700 FTIR).

[2] = tested on: plant cell membranes; experiment: Plant cell membrane intactness (PI staining, confocal); assay type: in vivo, Arabidopsis thaliana; conditions: after 5 days of exposure; 20 mg/L / 2 mg/L
Text: Interactions of Targeted Carbon Nanostructures with Plant Cell and Chloroplast Membranes. Damage to plant lipid membranes may cause ion and molecule permeability changes across the membrane, interruption of metabolic processes, intracellular signaling, and trafficking of biomolecules.^65,66 The application of targeted nanostructures with high charge allows penetration of plant cell barriers and localization inside organelles that could cause disruption in lipid membrane integrity. Plant cell membrane intactness in leaves treated with TP-β-CDs or TP-pATV1-SWCNTs (Table 1) was assessed by staining dead cells with propidium iodide (PI) dye followed by imaging under confocal microscopy (FIG. 7A). PI is a nonpermeable dye that only crosses the cell membranes when they are damaged. The overall percentage of intact cells without PI stained nuclei was calculated relative to the total number of cells (FIG. 7B). […] Both TP-β-CDs and TP-pATV1-SWCNTs maintained more than 93% of plant cells with intact membranes after 1 and 5 days of exposure, similar to controls without nanoparticles (FIG. 7B). […]
The percentage of intact cells was determined in Arabidopsis thaliana leaf tissues treated with TP-β-CD (20, 100, 500 mg/L) or TP-pATV1-SWCNT (2, 5, 10 mg/L) from one to five days. […] The total number of cells was determined using chloroplast autofluorescence to identify the leaf mesophyll cell boundaries. […]

[3] = tested on: whole plant cell DNA; conditions: in vivo
Protocol: DNA was extracted from plant leaf tissue and prepared using a Quick-DNA Plant/Seed DNA Miniprep kit (Zymo) in leaf samples treated with nanomaterials from one to five days. Each DNA sample contained 150 mg of plant tissue or 1 mL of isolated chloroplast suspension collected as explained above. Samples were placed in liquid nitrogen-filled mortar and pestle, ground, and placed directly into a Zymo BashingBead Lysis Tube with 750 μL BashingBead Buffer. The mixture was homogenized on a mixer mill (Retsch MM 400) for 10 minutes at 28 Hz. The DNA extraction was performed according to the manufacturer's instructions (zymoresearch.com) and concentrations were measured using a Nanodrop ND-1000 Spectrophotometer. Samples were stored at −20° C. until used for the 8-OHdG DNA damage biomarker assay.
We determined the amount of oxidative DNA damage in plant leaves treated with nanomaterials for one day or five days using an enzyme-linked immunosorbent assay (ELISA) for 8-hydroxydeoxyguanosine (8-OHdG). The OxiSelect™ Oxidative DNA Damage ELISA Kit (Cat# STA-320, Cell Biolabs, inc.) quantifies the amount of 8-OHdG in isolated DNA samples from plant leaf tissue or isolated chloroplast suspensions. […] Sample absorbance was read at 450 nm on an Infinite MPlex plate reader (Tecan).

TP-β-CD: carbon dots with β-cyclodextrin molecular baskets covalently bonded to chloroplast targeting peptide MASSMLSSATMVGGC (SEQ ID NO:5) (also: covalently bonded to carbon dots with β-cyclodextrin, site not given here)
ζ potential ([1]; 10 mM TES buffer, pH 7.0): −36.4±3.4 mV | ζ potential, magnitude ([1]; higher in magnitude than): > 30 mV | cell and chloroplast membrane damage [2]: no permanent cell and chloroplast membrane damage | increase in oxidative damage to whole plant cell DNA [3]: 2 fold

— patent publication US20230313217A1, “CHLOROPLAST TARGETING PEPTIDES AND CONJUGATES AND COMPOSITIONS THEREOF” (The Regents of the University of California, priority 2021, published 2023)
